These are literature values, as cited in US11884941B2, “Non-canonical lipoproteins with programmable assembly and architecture and method of making non-canonical lipoproteins” (SYRACUSE UNIVERSITY, priority 2020, dated 2024).

Where two headings read alike, the source gives them in different places.

Data set [1] addresses T1, yeast NMT (Saccharomyces cerevisiae, UniProt P14743).
T1 sequence (P14743 1-455): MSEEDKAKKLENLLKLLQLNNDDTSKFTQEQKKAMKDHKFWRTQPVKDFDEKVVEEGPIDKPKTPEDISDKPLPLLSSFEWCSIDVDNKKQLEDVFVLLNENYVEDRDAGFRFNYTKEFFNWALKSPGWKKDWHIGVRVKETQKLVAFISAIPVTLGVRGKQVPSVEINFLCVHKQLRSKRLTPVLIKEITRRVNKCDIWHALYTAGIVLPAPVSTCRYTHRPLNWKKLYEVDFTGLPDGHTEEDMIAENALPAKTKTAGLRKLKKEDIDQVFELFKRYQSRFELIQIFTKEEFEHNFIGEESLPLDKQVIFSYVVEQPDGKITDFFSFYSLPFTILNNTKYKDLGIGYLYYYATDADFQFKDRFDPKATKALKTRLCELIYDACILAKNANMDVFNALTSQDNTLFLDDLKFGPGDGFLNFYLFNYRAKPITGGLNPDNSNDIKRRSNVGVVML

For data set [2], the system named is Pseudomonas acyl-CoA synthetase. To be noted: in vitro.

As to GLYASKLFSNL (substrate for transferase), in data set [1] (read-out: Km of recognition sequence for yeast NMT), the Km was approximately 0.08 µM. As for `CC(C)(COP(=O)(O)OP(=O)(O)OCC1OC(n2cnc3c(N)ncnc32)C(O)C1OP(=O)(O)O)C(O)C(=O)NCCC(=O)NCCSC(=O)CCCCCCCCCCCN=[N+]=[N-]` (stereo not drawn) [ADA-CoA], the “amount of acyl-CoA produced compared to M-CoA” value in data set [2] was 1.5-2 times. For the compound `[N-]=[N+]=NCCCCCCCCCCCC(=O)O` [ADA, 12-azidododecanoic acid], the “Vm relative to Vm (M)” value in data set [1] (transfer to N-terminal glycine in ternary complex) is 1.5 ×Vm (M). For “GARASVLS [octapeptide NMT substrate derived from Pr55gag polypeptide precursor of human immunodeficiency virus I (Devadas et al.)]”, in data set [1], the “fold reduction of peptide affinity toward NMT:ADA-CoA complex compared to natural substrate (M-CoA)” value is 7 fold. The Km was 66 µM in data set [1] (NMT with ADA-CoA bound, read-out: Km for the peptide, NMT:ADA-CoA) and 9 µM in data set [1] (NMT with Myr-CoA bound, read-out: Km for the peptide, NMT:Myr-CoA complex).
